Consider 1 molecule from US20190192484A1 (UNIVERSITY OF CHICAGO, published 2019).

In the test the target is Vimentin (endogenous, WT fibroblasts) (mouse, UniProt P20152 2-466). Put plainly: proximity ligation assay in WT fibroblasts with anti-BAD and anti-Vimentin (FIG. 8F).
Vimentin (endogenous, WT fibroblasts), sequence (P20152 2-466 limits assumed): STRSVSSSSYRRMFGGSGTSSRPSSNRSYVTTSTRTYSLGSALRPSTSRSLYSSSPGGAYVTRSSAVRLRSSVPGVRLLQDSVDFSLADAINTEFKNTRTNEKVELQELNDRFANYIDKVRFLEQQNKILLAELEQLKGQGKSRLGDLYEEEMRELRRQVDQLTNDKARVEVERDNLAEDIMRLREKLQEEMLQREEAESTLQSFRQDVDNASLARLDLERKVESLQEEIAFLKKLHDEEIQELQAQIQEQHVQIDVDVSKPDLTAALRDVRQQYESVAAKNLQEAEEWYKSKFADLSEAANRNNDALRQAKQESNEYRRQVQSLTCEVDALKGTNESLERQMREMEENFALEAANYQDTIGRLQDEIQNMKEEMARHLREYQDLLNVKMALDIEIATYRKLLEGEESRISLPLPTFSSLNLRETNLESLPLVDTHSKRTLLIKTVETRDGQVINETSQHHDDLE

B1: BCL-2-associated death promoter (BAD), endogenous in WT fibroblasts (other, mouse, UniProt Q61337 1-204, looked up)
chain: MGTPKQPSLAPAHALGLRKSDPGIRSLGSDAGGRRWRPAAQSMFQIPEFEPSEQEDASATDRGLGPSLTEDQPGPYLAPGLLGSNIHQQGRAATNSHHGGAGAMETRSRHSSYPAGTEEDEGMEEELSPFRGRSRSAPPNLWAAQRYGRELRRMSDEFEGSFKGLPRPKSAGTATQMRQSAGWTRIIQSWWDRNLGKGGSTPSQ
notes: Endogenous protein inside fixed cells (microscopy, proximity ligation assay); also called WT BAD
As to B1, the binding result is reported as “no binding”.
